From patent US20030021792A1 come the findings set out here.

The target in experiment [1] is rat dipeptidyl peptidase IV (rat) (UniProt P14740). In words: 125I-labelled antibody injected in rat, scintigraphy of tissues.
For experiment [2] the target is unchanged. In words: Europium-labelled antibody injected in rat, time-resolved fluorescence of lung homogenate.
In experiment [3] the target is rat MadCam-1 (rat) (UniProt O70540). In words: Europium-labelled antibody injected in rat, time-resolved fluorescence of pancreas homogenate.
The target is the same in experiment [4]. In words: Europium-labelled antibody injected in rat, time-resolved fluorescence of small intestine homogenate.

Sequence of UniProt P14740 (P14740 whole entry R38A/Q470G): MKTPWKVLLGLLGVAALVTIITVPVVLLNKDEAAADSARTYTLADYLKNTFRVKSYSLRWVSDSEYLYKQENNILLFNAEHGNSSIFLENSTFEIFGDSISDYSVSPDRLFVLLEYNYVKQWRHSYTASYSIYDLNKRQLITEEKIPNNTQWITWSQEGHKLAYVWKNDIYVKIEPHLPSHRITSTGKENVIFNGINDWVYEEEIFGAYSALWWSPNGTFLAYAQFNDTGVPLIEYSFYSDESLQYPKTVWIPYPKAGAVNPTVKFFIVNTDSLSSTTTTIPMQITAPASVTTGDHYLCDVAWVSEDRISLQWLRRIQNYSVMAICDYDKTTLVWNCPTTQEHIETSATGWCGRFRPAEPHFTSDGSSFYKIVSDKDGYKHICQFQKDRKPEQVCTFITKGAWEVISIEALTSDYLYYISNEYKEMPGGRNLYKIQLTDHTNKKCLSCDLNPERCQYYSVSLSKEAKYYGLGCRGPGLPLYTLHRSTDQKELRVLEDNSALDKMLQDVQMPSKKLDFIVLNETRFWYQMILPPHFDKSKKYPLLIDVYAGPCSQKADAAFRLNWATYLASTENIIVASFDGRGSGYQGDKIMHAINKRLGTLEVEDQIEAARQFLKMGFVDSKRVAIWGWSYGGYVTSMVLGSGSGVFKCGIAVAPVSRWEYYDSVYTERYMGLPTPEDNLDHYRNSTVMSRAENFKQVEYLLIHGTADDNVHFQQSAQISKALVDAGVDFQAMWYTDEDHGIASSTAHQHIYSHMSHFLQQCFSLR
Sequence of UniProt O70540 (O70540 20-394 limits assumed): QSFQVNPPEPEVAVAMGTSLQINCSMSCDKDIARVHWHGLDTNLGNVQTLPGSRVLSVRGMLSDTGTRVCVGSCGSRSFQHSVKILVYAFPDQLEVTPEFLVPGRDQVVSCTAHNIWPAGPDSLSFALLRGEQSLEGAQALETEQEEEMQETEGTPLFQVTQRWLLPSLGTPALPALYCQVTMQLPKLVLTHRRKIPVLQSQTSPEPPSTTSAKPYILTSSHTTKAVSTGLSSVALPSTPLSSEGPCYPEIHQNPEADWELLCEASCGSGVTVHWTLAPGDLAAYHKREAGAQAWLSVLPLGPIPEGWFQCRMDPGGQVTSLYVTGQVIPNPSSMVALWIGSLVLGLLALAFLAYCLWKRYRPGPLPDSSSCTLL

In experiment [1], “OX-61 (Pharmingen), mouse monoclonal antibody specific for DPP-4” showed an antibody per gram of lung tissue (5 µg dose, 5 minutes) (µg per gram of tissue) greater than 0.4; an antibody per gram of lung tissue (5 µg dose, 8 hours) (µg per gram of lung tissue) of 0.7; a percent of injected dose localized in the lung (1 µg dose, 2 hours) (% of injected dose) of 22; a percent of injected dose localized in the lung (1 µg dose, 8 hours) (% of injected dose) of 30. Further, the percent of injected dose localized in the lung (5 µg dose, 5 minutes) (% of the initial antibody dose) in experiment [1] turned out to be 20. Besides, in experiment [2], the percent of injected dose localized in the lungs (5 µg dose, 30 minutes) (% of injected dose) amounted to 15 and the percent of injected dose localized in the lungs (5 µg dose, 6 hours) (% of injected dose) was 7.

“OST-2 (Pharmingen), mouse monoclonal antibody that recognizes rat MadCam-1”: the percent of injected dose localized to the pancreas (5 µg dose, 6 hours) (% of injected dose) in experiment [3] was 3. Moreover, the percent of injected dose in the small intestine (5 µg dose, 6 hours) (% of injected dose) in experiment [4] is greater than 5.
